From patent publication US20250136702A1 (NONA BIOSCIENCES SUZHOU, published 2025)
Residue numbers refer to the chain shown, from its start.

B1: PR300516 (antibody, human IgG1, kappa, V domains shown)
VH: QVQLVESGGGVVQPGRSLRLSCAASGFTFSSYGMHWVRQAPGKGLEWVAVIWYDGNNKYYADSVKGRFTISRDNSKNTLYLQMNSLRAEDTAVYYCARDGESSMVRGLLNWFDPWGQGTLVTVSS
VL: not shown
B2: PR301176 (antibody, IgG1, V domains shown)
VH: QVQLVESGGGVVQPGRSLRLSCAASGFTFSSYGMDWVRQAPGKGLEWVAVIWYDGSNKFYADSVRGRFTISRDNSQNTLYLQMNSLRAEDTAVYYCARELWFGELLSPFDFWGQGTLVTVSS
VL: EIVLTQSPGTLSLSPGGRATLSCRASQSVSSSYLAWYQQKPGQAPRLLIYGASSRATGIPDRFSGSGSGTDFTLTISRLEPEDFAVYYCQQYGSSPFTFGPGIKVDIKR
B3: PR301168 (antibody, IgG1, V domains shown)
VH: B2 VH with F109L
VL: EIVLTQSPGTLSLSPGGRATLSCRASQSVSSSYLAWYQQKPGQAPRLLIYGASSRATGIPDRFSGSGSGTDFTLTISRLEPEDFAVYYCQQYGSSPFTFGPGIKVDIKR
notes: also called PR3001168
B4: PR301152 (antibody, IgG1, V domains shown)
VH: B2 VH with F59Y, R65K, Q76K
VL: KIVLTQSPGTLSLSPGGRATLSCRASQSISSSYLAWYQQKPGQAPRLLIYAASNRATGIPDRFSGSGSGTDFTLTISRLEPEDFAVYYCQQYGSSPFTFGPGIKVDIKR
B5: PR301177 (antibody, human IgG1, kappa, V domains shown)
VH: QVQLVESGGGVVQPGRSLRLSCVASGFTFSSYGMNWVRQAPGKGLDWVTVIWFDGSNKYYADSVKGRFTISRDNSKNTLYLQMNSLRAEDTAMYYCARGERTLDLWGQGTLVTVSS
VL: DIQMTQSPSTLSASVGDRVTITCRASQSISSWLAWYQQKPGKAPKLLIYKASSLESGVPSRFSGSGSGTEFSFTISSLQPDDFATYYCQQYKSFSPGGLTFGGGTKVEIKR
B6: PR301127 (antibody, human IgG1, kappa, V domains shown)
VH: EVQLLQSGGGLVQPGGSLRLSCAASGFTFSNYAMTWVRQAPGKGLEWVSTISGSGAFTYYADAVKGRFTISRVNSKNSLDLQMNSLRAEDTAVYYCAKGGILTGFDNWGQGTLVTVSS
VL: B5 VL
B7: PR301153 (antibody, IgG1, V domains shown)
VH: QGQLVESGGGVVQPGRSLRLSCAASGFTFSSYGMHWVRQPPGKGLEWVAVIWFDGSNKYYADSVKGRFTISRDNSKNTVYLQMDSLRDEDTAVYYCARGQLVGDYWGQGTLVTVSS
VL: not shown
B8: PR301215 (antibody, human IgG1, kappa, V domains shown)
VH: B7 VH with G2V, P40A, N57I, V79L, D84N, D88A, V93I, G103Q, Y105F, Q108R
VL: DIQMTQSPSTLSASVGDRVTITCRASQSISSWLAWYQQKPGKAPNLLMYKASNLESGVPSRFSGSGSGTEFTLTITSLQPDDFASYYCQQYKSNPLTFGGGTKVEIKR
B9: PR301211 (antibody, human IgG1, kappa, V domains shown)
VH: QVQLVESGGGVVQPGRSLRLSCAASGFTFSSYGMHWVRQAPGKGLEWVAVIWFDGSLKYYADSVKGRFAISRDNSKNTLYLQMNSLRAEDTAIFYCARGQLVQDLWGRGTLVTVSS
VL: B8 VL
B10: PR301218 (antibody, human IgG1, kappa, V domains shown)
VH: B9 VH with L57V, A69T, F94Y, L105F
VL: B8 VL
B11: PR301196 (antibody, human IgG1, kappa, V domains shown)
VH: B9 VH with H35N, L57I, A69T, F94Y, L105F
VL: B8 VL with S56N, P59S, S85T
B12: PR301195 (antibody, human IgG1, kappa, V domains shown)
VH: B9 VH with H35N, L57I, A69T, F94Y, L105F
VL: B8 VL

How the values were obtained:
[1] = molecular target: T1, human LIFR expressed on the surface of 293T cells (human, UniProt P42702 45-1097); assay: flow cytometry on HEK293T-huLIFR cells, median fluorescence, span of the fitted curve
T1 construct: whole, on cells; also called HEK293T-huLIFR; huLIFR
T1 sequence (looked up): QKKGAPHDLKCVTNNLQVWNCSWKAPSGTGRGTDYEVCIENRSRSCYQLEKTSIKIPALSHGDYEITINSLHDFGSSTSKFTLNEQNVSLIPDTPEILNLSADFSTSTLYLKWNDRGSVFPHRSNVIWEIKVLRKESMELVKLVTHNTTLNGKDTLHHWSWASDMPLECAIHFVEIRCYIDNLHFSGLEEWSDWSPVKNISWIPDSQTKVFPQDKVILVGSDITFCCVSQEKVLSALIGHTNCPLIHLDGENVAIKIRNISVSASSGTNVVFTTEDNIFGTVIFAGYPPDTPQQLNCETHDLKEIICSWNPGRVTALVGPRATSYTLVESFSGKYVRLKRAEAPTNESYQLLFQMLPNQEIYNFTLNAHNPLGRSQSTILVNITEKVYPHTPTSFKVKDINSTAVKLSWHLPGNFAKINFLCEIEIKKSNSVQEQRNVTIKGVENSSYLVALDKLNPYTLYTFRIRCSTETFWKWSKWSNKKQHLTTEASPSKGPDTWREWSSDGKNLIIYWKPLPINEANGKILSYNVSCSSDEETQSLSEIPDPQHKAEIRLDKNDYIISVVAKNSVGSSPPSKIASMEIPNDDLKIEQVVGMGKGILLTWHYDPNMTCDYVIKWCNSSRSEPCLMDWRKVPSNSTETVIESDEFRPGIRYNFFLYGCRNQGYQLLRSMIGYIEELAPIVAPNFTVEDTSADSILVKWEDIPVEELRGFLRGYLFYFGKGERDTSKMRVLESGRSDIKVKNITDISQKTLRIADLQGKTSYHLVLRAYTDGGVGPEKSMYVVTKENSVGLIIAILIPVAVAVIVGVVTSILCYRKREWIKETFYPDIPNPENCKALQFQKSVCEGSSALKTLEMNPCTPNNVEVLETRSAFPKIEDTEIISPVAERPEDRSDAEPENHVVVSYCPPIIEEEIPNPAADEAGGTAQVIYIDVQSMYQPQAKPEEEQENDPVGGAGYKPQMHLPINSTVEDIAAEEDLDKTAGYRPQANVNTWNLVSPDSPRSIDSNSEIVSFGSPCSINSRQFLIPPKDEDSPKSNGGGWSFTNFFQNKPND

[2] = molecular target: T2, mouse LIFR-ECD protein (mouse, UniProt P42703 44-828); assay: ELISA on plate-coated mouse LIFR-ECD (1 ug/mL), anti-human IgG Fc-HRP, OD450nm
T2 construct: extracellular domain
T2 sequence (looked up): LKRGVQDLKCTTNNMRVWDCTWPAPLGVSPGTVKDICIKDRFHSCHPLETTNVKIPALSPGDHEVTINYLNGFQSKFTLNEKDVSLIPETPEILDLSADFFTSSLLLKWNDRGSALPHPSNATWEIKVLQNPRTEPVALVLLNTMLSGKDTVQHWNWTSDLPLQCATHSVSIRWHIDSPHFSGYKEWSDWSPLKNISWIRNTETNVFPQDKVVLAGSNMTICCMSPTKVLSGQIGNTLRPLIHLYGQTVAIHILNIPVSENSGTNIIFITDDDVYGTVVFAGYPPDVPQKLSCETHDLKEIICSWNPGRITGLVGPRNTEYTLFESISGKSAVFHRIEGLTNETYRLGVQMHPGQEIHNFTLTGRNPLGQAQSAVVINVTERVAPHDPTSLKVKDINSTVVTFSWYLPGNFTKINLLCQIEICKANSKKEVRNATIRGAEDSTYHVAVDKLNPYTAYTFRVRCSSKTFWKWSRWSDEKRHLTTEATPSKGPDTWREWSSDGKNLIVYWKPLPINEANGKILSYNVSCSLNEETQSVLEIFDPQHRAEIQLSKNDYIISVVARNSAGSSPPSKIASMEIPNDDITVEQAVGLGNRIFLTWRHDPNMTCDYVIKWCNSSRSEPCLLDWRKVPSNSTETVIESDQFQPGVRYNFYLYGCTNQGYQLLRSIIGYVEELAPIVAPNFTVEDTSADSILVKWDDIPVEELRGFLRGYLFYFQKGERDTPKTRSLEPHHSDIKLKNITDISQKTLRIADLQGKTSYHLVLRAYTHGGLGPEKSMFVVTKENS
Procedure: The binding ability of the 15 antibodies prepared in examples 1-4 of the present invention to the LIFR-ECD protein was detected based on the ELISA assay method. The binding affinity of different antibodies was determined by comparing their dose response binding curves to LIFR-ECD protein. The specific experimental process is as follows: First, human LIFR-ECD, monkey LIFR-ECD and mouse LIFR-ECD proteins are diluted to a concentration of 1 μg/mL, added to a 96-well plate (100 μL per well) and placed at 4° C. overnight. The 96-well plates were washed three times with PBST solution and then placed at 37° C. for 1 h with the addition of 2% BSA in PBS solution. Antibody seris dilution is prepared and (100 nM, 10-fold-dilution), added to a 96-well plate and incubate at 37° C. for 1 h. After washing three times with PBST solution, add anti-human IgG Fc-HRP secondary antibody (for 5000× dilution) and incubate at 37° C. for 30-60 min. After washing three times with PBST solution, add TMB color development solution for 5-15 minutes, and then add termination solution to ternimate the color development.

[3] = molecular target: T3, human LIFR/gp130 heterodimer expressed on the surface of 293T cells (human, UniProt P42702 45-1097; P40189 23-918); assay: flow cytometry on HEK293T-huLIFR/gp130 cells, median fluorescence, span of the fitted curve
T3 construct: whole, on cells; also called HEK293T-huLIFR/gp130; huLIFR/gp130
T3 sequence (P40189 23-918, one chain of several): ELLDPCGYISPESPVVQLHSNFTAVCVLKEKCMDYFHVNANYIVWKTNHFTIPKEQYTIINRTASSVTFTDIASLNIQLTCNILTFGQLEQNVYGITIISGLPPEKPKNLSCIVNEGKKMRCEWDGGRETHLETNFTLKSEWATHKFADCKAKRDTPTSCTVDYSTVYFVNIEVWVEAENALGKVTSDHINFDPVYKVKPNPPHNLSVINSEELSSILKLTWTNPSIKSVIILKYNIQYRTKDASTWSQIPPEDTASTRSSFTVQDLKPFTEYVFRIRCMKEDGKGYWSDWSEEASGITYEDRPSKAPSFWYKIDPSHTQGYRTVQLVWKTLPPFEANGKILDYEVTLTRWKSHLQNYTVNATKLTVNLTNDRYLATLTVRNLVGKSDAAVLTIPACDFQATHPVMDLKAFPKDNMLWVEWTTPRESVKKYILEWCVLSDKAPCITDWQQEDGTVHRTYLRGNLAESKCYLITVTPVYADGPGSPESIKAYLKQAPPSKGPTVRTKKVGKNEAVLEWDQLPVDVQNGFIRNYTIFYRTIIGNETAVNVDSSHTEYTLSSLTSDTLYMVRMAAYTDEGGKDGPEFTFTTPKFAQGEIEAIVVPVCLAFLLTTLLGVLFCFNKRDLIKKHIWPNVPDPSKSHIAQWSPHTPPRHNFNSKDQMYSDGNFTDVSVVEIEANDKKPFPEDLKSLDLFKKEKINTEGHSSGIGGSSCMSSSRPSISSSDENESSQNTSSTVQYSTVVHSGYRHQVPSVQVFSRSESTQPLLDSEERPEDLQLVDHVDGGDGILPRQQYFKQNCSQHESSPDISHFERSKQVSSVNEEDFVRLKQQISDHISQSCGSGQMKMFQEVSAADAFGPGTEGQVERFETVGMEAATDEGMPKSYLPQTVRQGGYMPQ

| Binder | Span [1] | binding result [2] | Span [3] |
| --- | --- | --- | --- |
| B1 | 19800 | no binding (tested: 100 nM) | 6880 |
| B2 | – | no binding (tested: 100 nM) | – |
| B3 | 19400 | no binding (tested: 100 nM) | 6950 |
| B4 | 20100 | no binding (tested: 100 nM) | 7210 |
| B5 | – | no binding (tested: 100 nM) | – |
| B6 | – | – | 55.6 |
| B7 | – | no binding (tested: 100 nM) | – |
| B8 | – | no binding (tested: 100 nM) | – |
| B9 | 15900 | – | 5800 |
| B10 | – | no binding (tested: 100 nM) | – |
| B11 | – | no binding (tested: 100 nM) | – |
| B12 | – | no binding (tested: 100 nM) | – |
